From US20250262210A1 (TRUSTEES OF COLUMBIA UNIVERSITY IN THE CITY OF NEW YORK, published 2025)

Experiments:
Test in all cases: IP/MS, LZTR1 wild type-FLAG, U87
EPG5 = EPG5 (human, UniProt Q9HCE0 1-2579, limits assumed)
Procedure, shortened: (§1)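 Read-out: spectral counts from LC-MS/MS (Orbitrap Fusion) after MaxQuant identification. Variable modifications were Met oxidation, protein N-terminal acetylation and N/Q deamidation.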

POLR1A = POLR1A (human, UniProt O95602 1-1720)
Procedure, shortened: as §1

DPP9 = DPP9 (human, UniProt Q86TI2 2-863, limits assumed)
Procedure, shortened: as §1

SMPD4 = biological target: T1, SMPD4 (human, UniProt Q9NXE4 1-866, limits assumed)
T1 sequence (looked up): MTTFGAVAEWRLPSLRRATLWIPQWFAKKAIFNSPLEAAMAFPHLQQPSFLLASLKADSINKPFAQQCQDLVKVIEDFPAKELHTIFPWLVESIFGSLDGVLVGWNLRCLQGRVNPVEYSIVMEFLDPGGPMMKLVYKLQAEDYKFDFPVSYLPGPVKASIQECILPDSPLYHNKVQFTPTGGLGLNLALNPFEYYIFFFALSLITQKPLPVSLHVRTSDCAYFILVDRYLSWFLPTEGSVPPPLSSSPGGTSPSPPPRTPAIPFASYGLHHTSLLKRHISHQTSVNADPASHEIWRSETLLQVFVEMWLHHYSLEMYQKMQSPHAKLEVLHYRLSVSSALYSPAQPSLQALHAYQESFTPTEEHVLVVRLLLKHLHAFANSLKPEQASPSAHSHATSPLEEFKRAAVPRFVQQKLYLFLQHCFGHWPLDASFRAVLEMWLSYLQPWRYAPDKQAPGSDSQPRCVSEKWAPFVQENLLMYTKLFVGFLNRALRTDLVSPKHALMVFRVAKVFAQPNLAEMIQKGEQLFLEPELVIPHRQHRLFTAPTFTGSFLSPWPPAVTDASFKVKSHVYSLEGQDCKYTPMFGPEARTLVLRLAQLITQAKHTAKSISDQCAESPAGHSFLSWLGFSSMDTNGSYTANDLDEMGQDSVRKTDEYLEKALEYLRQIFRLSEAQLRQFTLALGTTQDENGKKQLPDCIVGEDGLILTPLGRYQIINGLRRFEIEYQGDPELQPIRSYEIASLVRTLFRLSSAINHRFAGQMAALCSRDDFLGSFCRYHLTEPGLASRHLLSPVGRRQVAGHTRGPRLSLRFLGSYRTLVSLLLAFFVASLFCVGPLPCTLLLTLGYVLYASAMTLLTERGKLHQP
Procedure, shortened: as §1

MYO10 = MYO10 (human, UniProt Q9HD67 1-2058, limits assumed)
Procedure, shortened: as §1

ANKRD52 = biological target: T2, ANKRD52 (human, UniProt Q8NB46 1-1076)
T2 sequence (looked up): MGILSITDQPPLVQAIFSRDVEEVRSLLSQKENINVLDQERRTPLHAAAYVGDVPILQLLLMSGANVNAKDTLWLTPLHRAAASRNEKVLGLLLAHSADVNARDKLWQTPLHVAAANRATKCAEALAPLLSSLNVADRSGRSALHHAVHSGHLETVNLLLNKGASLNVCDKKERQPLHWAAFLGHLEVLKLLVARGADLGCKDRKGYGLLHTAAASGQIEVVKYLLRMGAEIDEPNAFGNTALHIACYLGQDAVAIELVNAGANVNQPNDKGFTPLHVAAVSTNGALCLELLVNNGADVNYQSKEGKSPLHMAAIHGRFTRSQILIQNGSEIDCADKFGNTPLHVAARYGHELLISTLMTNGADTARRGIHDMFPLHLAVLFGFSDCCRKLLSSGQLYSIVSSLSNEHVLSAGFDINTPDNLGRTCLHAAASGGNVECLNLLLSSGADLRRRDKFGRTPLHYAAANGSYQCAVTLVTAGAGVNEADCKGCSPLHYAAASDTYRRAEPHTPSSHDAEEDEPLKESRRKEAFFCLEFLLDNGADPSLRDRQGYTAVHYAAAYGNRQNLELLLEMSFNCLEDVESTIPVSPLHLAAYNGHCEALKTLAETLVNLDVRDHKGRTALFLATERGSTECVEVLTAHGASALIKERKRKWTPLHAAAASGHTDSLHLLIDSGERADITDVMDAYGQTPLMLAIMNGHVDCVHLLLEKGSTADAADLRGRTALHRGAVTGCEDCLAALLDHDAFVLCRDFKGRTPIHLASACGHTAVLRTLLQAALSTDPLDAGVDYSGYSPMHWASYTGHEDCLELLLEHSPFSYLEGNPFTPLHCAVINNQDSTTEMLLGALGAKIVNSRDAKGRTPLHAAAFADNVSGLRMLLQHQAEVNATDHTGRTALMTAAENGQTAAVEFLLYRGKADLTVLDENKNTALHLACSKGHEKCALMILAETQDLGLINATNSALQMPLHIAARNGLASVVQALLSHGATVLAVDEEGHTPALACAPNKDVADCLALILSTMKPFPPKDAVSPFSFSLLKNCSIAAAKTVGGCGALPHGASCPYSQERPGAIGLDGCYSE
Procedure, shortened: as §1

SPG11 = SPG11 (human, UniProt Q96JI7 1-2443, limits assumed)
Sequence of SPG11 (Q96JI7 whole entry): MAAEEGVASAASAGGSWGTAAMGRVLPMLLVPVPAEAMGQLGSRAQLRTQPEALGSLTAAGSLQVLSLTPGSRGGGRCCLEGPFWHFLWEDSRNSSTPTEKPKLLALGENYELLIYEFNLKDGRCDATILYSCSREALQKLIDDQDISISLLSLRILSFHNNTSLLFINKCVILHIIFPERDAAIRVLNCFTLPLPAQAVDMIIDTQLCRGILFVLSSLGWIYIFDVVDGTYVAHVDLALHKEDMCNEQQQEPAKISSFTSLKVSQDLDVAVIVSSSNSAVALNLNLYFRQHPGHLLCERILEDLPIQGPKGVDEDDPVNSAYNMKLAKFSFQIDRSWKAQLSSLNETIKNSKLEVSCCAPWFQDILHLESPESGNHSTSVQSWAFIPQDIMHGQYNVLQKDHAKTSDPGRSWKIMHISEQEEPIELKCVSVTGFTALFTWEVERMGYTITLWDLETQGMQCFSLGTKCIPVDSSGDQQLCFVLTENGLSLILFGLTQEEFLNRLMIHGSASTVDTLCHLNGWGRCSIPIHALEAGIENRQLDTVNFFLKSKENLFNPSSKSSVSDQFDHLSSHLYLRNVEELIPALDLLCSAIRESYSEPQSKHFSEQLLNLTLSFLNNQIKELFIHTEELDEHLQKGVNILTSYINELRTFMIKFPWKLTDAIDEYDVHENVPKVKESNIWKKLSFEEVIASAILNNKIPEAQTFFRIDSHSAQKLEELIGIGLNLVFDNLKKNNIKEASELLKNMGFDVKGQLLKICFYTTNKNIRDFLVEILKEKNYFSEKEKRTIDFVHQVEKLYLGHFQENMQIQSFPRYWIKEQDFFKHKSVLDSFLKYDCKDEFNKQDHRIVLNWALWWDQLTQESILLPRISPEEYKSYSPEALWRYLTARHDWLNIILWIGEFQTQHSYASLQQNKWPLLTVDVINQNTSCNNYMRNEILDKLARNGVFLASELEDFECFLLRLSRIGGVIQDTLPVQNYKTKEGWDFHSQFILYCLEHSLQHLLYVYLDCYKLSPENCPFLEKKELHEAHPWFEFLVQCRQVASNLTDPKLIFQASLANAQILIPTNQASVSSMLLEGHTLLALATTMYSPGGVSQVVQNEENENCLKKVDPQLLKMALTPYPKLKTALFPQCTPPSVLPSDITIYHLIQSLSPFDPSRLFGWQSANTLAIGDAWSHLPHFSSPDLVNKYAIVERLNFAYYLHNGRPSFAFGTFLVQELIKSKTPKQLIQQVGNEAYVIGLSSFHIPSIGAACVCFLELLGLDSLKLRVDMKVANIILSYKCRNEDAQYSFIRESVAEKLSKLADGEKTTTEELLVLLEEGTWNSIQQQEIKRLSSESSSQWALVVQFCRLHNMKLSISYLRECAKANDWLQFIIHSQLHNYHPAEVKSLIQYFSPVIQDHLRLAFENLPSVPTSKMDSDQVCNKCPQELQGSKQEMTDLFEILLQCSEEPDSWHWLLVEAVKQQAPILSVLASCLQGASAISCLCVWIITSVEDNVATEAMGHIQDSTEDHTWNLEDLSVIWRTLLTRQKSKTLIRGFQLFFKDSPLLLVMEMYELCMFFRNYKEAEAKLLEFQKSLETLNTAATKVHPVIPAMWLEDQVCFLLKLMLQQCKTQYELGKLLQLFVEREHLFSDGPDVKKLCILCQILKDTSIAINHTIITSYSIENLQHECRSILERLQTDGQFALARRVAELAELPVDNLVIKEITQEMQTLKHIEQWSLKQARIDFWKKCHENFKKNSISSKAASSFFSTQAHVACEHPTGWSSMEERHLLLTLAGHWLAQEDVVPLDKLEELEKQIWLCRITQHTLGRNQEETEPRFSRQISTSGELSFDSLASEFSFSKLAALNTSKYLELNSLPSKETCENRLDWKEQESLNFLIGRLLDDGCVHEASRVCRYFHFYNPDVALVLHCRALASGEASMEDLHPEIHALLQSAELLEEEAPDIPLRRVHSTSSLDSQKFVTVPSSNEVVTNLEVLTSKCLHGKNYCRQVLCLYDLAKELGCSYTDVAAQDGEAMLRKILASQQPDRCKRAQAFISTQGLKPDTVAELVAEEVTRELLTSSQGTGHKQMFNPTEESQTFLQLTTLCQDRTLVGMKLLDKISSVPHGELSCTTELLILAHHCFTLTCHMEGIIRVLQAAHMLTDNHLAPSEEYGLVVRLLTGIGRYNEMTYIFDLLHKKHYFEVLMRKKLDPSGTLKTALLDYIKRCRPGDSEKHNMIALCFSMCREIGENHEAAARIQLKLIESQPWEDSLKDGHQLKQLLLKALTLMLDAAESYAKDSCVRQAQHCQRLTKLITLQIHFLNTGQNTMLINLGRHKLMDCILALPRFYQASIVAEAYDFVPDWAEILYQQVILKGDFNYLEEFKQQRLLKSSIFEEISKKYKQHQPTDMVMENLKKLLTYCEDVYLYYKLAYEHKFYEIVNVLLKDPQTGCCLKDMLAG
Procedure, shortened: as §1

Measured: binding result

Sequence of EPG5 (Q9HCE0 whole entry, the tested form may be a part): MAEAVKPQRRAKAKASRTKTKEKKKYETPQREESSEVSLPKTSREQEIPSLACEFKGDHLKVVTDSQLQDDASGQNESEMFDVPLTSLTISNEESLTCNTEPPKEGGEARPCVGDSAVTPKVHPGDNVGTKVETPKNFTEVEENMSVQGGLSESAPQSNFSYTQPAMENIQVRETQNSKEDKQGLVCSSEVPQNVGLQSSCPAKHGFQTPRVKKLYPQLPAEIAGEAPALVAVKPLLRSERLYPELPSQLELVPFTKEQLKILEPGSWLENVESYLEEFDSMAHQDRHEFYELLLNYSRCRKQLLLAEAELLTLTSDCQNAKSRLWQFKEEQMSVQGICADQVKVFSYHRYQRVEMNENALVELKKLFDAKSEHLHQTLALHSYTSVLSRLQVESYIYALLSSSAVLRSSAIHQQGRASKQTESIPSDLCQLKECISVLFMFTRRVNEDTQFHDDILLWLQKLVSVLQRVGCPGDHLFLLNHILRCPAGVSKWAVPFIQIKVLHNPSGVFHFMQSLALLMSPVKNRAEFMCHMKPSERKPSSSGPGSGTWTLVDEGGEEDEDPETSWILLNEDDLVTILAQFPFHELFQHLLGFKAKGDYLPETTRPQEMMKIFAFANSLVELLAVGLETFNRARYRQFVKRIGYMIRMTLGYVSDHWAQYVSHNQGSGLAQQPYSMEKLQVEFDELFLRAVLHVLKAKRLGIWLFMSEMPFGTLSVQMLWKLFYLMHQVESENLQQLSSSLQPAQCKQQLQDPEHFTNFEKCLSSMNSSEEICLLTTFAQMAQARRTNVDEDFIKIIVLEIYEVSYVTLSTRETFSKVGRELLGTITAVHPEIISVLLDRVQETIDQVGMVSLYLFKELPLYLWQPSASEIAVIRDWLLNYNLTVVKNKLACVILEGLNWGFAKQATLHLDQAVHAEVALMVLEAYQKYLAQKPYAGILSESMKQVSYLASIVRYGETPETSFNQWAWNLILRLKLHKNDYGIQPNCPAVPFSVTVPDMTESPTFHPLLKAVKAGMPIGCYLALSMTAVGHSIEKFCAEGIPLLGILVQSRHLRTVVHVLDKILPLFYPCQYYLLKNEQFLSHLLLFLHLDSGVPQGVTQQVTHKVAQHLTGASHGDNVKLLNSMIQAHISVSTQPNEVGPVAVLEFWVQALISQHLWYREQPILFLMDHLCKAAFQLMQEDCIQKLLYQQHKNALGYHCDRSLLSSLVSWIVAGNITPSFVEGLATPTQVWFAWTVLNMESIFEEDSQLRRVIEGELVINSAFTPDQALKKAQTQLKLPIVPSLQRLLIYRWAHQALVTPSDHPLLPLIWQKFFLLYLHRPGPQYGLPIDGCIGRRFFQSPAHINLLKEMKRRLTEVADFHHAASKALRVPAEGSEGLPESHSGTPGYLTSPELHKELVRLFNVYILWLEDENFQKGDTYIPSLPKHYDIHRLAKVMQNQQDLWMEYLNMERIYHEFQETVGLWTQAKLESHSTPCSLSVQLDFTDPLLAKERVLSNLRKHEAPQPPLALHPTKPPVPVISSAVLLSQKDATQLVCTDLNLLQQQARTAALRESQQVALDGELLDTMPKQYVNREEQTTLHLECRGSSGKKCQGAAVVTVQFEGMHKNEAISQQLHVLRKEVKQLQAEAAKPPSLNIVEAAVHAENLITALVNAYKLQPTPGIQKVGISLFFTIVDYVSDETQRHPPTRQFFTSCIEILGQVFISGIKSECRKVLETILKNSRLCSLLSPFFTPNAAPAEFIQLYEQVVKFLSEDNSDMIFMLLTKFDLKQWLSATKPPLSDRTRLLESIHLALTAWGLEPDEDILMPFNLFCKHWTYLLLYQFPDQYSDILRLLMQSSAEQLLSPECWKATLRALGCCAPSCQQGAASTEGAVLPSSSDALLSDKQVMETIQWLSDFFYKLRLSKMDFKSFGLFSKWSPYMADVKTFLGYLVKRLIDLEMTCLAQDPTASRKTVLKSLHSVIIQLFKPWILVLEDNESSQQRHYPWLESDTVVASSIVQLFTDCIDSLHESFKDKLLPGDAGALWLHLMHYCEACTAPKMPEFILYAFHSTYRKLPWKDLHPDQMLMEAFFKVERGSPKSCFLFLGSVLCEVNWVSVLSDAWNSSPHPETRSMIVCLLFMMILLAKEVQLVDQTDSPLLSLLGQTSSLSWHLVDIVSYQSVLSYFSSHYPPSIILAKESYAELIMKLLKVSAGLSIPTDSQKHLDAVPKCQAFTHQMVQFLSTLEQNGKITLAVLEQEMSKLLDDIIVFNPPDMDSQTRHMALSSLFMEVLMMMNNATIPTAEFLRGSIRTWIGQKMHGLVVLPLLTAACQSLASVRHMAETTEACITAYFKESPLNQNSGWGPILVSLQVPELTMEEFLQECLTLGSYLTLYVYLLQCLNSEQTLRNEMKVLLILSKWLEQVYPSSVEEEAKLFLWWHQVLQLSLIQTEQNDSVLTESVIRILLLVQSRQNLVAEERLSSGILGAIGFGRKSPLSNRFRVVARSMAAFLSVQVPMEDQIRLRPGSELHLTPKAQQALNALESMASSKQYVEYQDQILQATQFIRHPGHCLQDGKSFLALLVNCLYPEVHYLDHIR

B1: LZTR1-FLAG (other, human, UniProt Q8N653 1-840, looked up)
chain: MAGPGSTGGQIGAAALAGGARSKVAPSVDFDHSCSDSVEYLTLNFGPFETVHRWRRLPPCDEFVGARRSKHTVVAYKDAIYVFGGDNGKTMLNDLLRFDVKDCSWCRAFTTGTPPAPRYHHSAVVYGSSMFVFGGYTGDIYSNSNLKNKNDLFEYKFATGQWTEWKIEGRLPVARSAHGATVYSDKLWIFAGYDGNARLNDMWTIGLQDRELTCWEEVAQSGEIPPSCCNFPVAVCRDKMFVFSGQSGAKITNNLFQFEFKDKTWTRIPTEHLLRGSPPPPQRRYGHTMVAFDRHLYVFGGAADNTLPNELHCYDVDFQTWEVVQPSSDSEVGGAEVPERACASEEVPTLTYEERVGFKKSRDVFGLDFGTTSAKQPTQPASELPSGRLFHAAAVISDAMYIFGGTVDNNIRSGEMYRFQFSCYPKCTLHEDYGRLWESRQFCDVEFVLGEKEECVQGHVAIVTARSRWLRRKITQARERLAQKLEQEAAPVPREAPGVAAGGARPPLLHVAIREAEARPFEVLMQFLYTDKIKYPRKGHVEDVLLIMDVYKLALSFQLCRLEQLCRQYIEASVDLQNVLVVCESAARLQLSQLKEHCLNFVVKESHFNQVIMMKEFERLSSPLIVEIVRRKQQPPPRTPLDQPVDIGTSLIQDMKAYLEGAGAEFCDITLLLDGHPRPAHKAILAARSSYFEAMFRSFMPEDGQVNISIGEMVPSRQAFESMLRYIYYGEVNMPPEDSLYLFAAPYYYGFYNNRLQAYCKQNLEMNVTVQNVLQILEAADKTQALDMKRHCLHIIVHQFTKVSKLPTLRSLSQQLLLDIIDSLASHISDKQCAELGADI
notes: Expressed in HEK 293T, HeLa or U87 cells; used as cell lysate; also called LZTR1 wild type-FLAG; LZTR1 WT; not shown: FLAG tag at the C-terminus
binds: all assays above
